Assay results taken from the DeepSol protein solubility set.

test: soluble on expression in E. coli; label from the status in PepcDB or PDB records

Sequence	soluble on expression in E. coli
MAHHHHHHGHHHQLENLYFQGEETAVPENSGANTELVSGESEHSTNEADKQNEGEHARENKLEKAEGVATASETASPASNEAATTETAEAASAAKPEEKASEVVAETPSAEAKPKSDKETEAKPEATNQGDESKPAAEANKTEKEVQPDVPKNTEKTLKPKEIKFNSWEELLKWEPGAREDDAINRGSVVLASRRTGHLVNEKASKEAKVQALSNTNSKAKDHASVGGEEFKAYAFDYWQYLDSMVFWEGLVPTPDVIDAGHRNGVPVYGTLFFNWSNSIADQERFAEALKQDADGSFPIARKLVDMAKYYGYDGYFINQETTGDLVKPLGEKMRQFMLYSKEYAAKVNHPIKYSWYDAMTYNYGRYHQDGLGEYNYQFMQPEGDKVPADNFFANFNWDKAKNDYTIATANWIGRNPYDVFAGLELQQGGSYKTKVKWNDILDENGKLRLSLGLFAPDTITSLGKTGEDYHKNEDIFFTGYQGDPTGQKPGDKDWYGIANLVADRTPAVGNTFTTSFNTGHGKKWFVDGKVSKDSEWNYRSVSGVLPTWRWWQTSTGEKLRAEYDFTDAYNGGNSLKFSGDVAGKTDQDVRLYSTKLEVTEKTKLRVAHKGGKGSKVYMAFSTTPDYKFDDADAWKELTLSDNWTNEEFDLSSLAGKTIYAVKLFFEHEGAVKDYQFNLGQLTISDNHQEPQSPTSFSVVKQSLKNAQEAEAVVQFKGNKDADFYEVYEKDGDSWKLLTGSSSTTIYLPKVSRSASAQGTTQELKVVAVGKNGVRSEAATTTFDWGMTVKDTSLPKPLAENIVPGATVIDSTFPKTEGGEGIEGMLNGTITSLSDKWSSAQLSGSVDIRLTKSRTVVRWVMDHAGAGGESVNDGLMNTKDFDLYYKDADGEWKLAKEVRGNKAHVTDITLDKPITAQDWRLNVVTSDNGTPWKAIRI	soluble
MSLIYAQILAGGKGTRMGNVSMPKQFLPLNGKPIIVHTVEKFILNTRFDKILISSPKEWMNHAEDNIKKYISDDRIVVIEGGEDRNETIMNGIRFVEKTYGLTDDDIIVTHDAVRPFLTHRIIEENIDAALETGAVDTVIEALDTIVESSNHEVITDIPVRDHMYQGQTPQSFNMKKVFNHYQNLTPEKKQILTDACKICLLAGDDVKLVKGEIFNIKITTPYDLKVANAIIQERIANEGHHHHHH	soluble
MQKLPHSLFFGPAGCGKTTFARVVAKDFGLDFYEFDGGNFKLEDLRKIIENYKNSLYKPLIFIDEIHRLSKTQQEMLLIPMENYRCIVIGASTENPYFVLSSGIRSRSMLFEFKNLGQKDLELLLERVQQKIAFKIEDNAKEFLLKSFDARAMLNLLEFALVLNEKEITLENLKKLRNGVNSEGVSSKDTHYILASALIKSLRGSDVDAAIYYLARLIDAGESADFIARRLIIFASEDISNADPNALNLAVSTLTAVKNIGYPEARIILSQCAVYLASAPKSNSSYNAINKALDYVKNNPALEIPNYLNNNHPEKKNYLYPHNFGGWVKQNYLSANLKFYESKGIGEEARLLENLSKLKNIKS	soluble
MSLDLLFSECNDEIDNAKLIMKERRFTASYTFAKFSTGSMLLTKDIVGKSGVSIKRLPTELQRKFLFDDVYLDKEIEKVTIEARKSNPYPQISESSLLFKDALDYMEKTSSDYNLWKLSSILFDPVSYPYKTDNDQVKMALLKKERHCRLTSWIVSQIGPEIEEKIRNSSNEIEQIFLYLLLNDVVRASKLAIESKNGHLSVLISYLGSNDPRIRDLAELQLQKWSTGGCSIDKNISKIYKLLSGSPFEGLFSLKELESEFSWLCLLNLTLCYGQIDEYSLESLVQSHLDKFSLPYDDPIGVIFQLYAANENTEKLYKEVRQRTNALDVQFCWYLIQTLRFNGTRVFSKETSDEATFAFAAQLEFAQLHGHSLFVSCFLNDDKAAEDTIKRLVMREITLLRASTNDHILNRLKIPSQLIFNAQALKDRYEGNYLSEVQNLLLGSSYDLAEMAIVTSLGPRLLLSNNPVQNNELKTLREILNEFPDSERDKWSVSINVFEVYLKLVLDNVETQETIDSLISGMKIFYDQYKHCREVAACCNVMSQEIVSKILEKNEGHHHHHH	not soluble
MVDLKRLRQEPEVFHRAIREKGVALDLEALLALDQEVQELKKRLQEVQTERNQVAKRVPKAPPEEKEALIARGRALGEEAKRLEEALREKEAQLEALLLQVPLPPWPGAPVGGEEANREIKRVGSPPEFSFPPLDHVALMEKNGWWEPRISQVSGSRSYALKGDLALYELALLRFAMDFMARRGFLPMTLPSYAREKAFLGTGHFPAYRDQVWAIAETDLYLTGTAEVVLNALHSGEILPYEALPLRYAGYAPAFRSEAGSFGKDVRGLMRVHQFHKVEQYVLTEASLEASDRAFQELLENAEEILRLLELPYRLVEVATGDMGPGKWRQVDVEVYLPSEGRYRETHSCSALLDWQARRANLRYRDPEGRVRYAYTLNNTALATPRILAMLLENHQLQDGRVRVPKALVPYMGKEVLEPCG	soluble
MDIYERQVRVEAPLAEVWKFHATGDGLVALTPDWMNIRIEAERGPDGEPNPDELTAGSVVESSIKPFGVPPRQQWVSNIVAREEGEDEAMFRDVMEEGPFPHWEHTHTFRALSDRETLVHDHVEFELPGGPLGRALGPFGCLGMEPMFRYRHQQTKKLLEGLEHHHHHH	not soluble
MKITFLGAAKTVTGSCFFVETASTKFLVDCGMFQGYSKNNALNEEEFPFNVEELDYIFLTHAHIDHSGRIPRIYIKGFRGQIIATKATVELCAIMLPDSGHIQEYENEWTNRKRLRAGKPPVEPLYTYQDAVNCLELFRKVSYDEVIKINDEIRVRFRDAGHILGSAIIEMWINERGEEIKIVFSGDLGNKDIPILRDPSIIESADYLVIESTYGNRLHNERVDKAEYFLNLINSTIEKGGNVIIPSFAAGRTQELIYELNKKKEVYDEKLKMLFATPVYIDSPMAISATEVFRNNLDCYDEEAREYIENGDNPLDFPGLQFTRTAEESKALNERKESSIIIAASGMCEAGRIRHHLKHNLWRKDSTIIFVGYQAEGTLGRRLLDGAKKVRLFGEEISVEARIEMIEGFSGHADKEGLLKWIERFNRKPKKIFIVHGEEDAMIEFSEEINRRFNIETVIPSRGESFILNAHNVIAIDEKVRPDNSFRILQVVEKLENIKEEVEELSYILKSDLKQDKTDLELDELMAKLKNIEKSILEALK	not soluble
MGSDKIHHHHHHMNLYEKLAEDIETSIRQGVYRHGERLPSVRQISQQHRISVTTAIRAYLLLESRGLVTSRPQSGYFVNRRDESERKALELRPSKPIPISSPVDVSRLVLSTLRSIGVDDAVPLGSPYPDPSLFPFERINRYAYDAGRGKAQWGVTDALPPGNAKLVRQIARRYLENGMAVDPNEIIITVGATEAINLCLQAVAKPGDVIAVESPTFYAMLHAIERMGMKAIEVSTHPEHGIDIEALAAIVESQPIAACMVMPNFQNPLGFLMPDERKRELVELLTKRNIPVIENGVYNELHFDSPHPSTLKSFDTKGLVLHCSSFSKSLTSAYRIGWALPGRYRDQVEKLKFLNTLTSPSIPQLAIAEFLERDGFEHHLRKVRKAYAQQANLMKAIVSRFFPEGTRMSNPAGGYVLWVELPPRVDSMRLYKLALDQGITIGPGYMFSVSETTYRNFIRLNYSSPWSGEIEQAVITVGKLVSMCAS	not soluble
GSHMNKKSFQCSNCSVTETIRWRNIRSKEGIQCNACFIYQRKYNKTRPVTAVNKYQKRKLKVQETNGVDSF	soluble
MAHHHHHHMMSMRPTTGMAPPPTGMAFSATGSSHTGPMRPTTTMGGGTTLGRIQAQVQEGTFTSTVYGYIRDHQYEEAVELLATQLEEFPRSRAAASLMAYCYYMMGDYGEAASLYEQLTKICPNIEEYRVYYAQSLYKAGAYAESNRLCTLITSPQNQTTLNKLQAAIAYEQEDIPQTKSFLDQAPETDTDMLVLRACVLSKEGSYEEALEKFKEAQNAVGFSAALTYNMALMYYKMEQYGPALRHLAEIIDRGVEEHPELNIGTNTEGGEARSVGNTQLLRETALIEAFNLKAAIEYASKNMQAAKEALTDMPPRTDAELDPVTLHNTALINMDENPTNAFKKFNFLLQNPPFPPETFQNLLLFYCKYQYYDLAADVLAENPHLAWQYLSQNNQSLYDFLDGLITAQTSPAEAYRKFDILAQKMVQQLRNMTRRIQEADQSQDAAVAKTAVRTYDVTLEEYIPVLMAQANIYWEMENYPMVEQLFRQSADFCSENDVWKQNVAHVFFMQETKFKEAIRYYSPVVEANRENILNCSAIVLANLCVSYIMTAQNEQAEEIMRRIERAEERLTYEDSSKQPLHLCIVNLVIGTLYCSKGNFEFGISRIIKSLEPYDRKIMTDTWFYAKRCFLALAMNLAKHMVSLKDSSFEEILFFFDQADLHGEKIFAFIHPDPSKQDTSPRNTARWEARQLKKLYLTLKE	not soluble
MKPTAIFLMGPTASGKTDLAIQLRSQLPVEVISVDSALIYKGMDIGTAKPSKEELALAPHRLIDILDPSESYSAMNFRDDALREMADITAQGKIPLLVGGTMLYYKALIEGLSPLPSADENIRAELEQKAAQQGWAALHTELAKIDPISAARINPSDSQRINRALEVFYITGKSLTELTEEKGEALPYDFVQFAIAPQDRHVLHERIEQRFHKMIELGFQAEVEKLYARGDLNINLPSIRCVGYRQMWEYLQGDYAYEEMIFRGICATRQLAKRQLTWLRGWKTPIQWLDSLQPQQAKETVLRHLDSYQKGLEHHHHHH	soluble
MTKTEKDWFQRLIKLIKSDGRTMIEISKAAGCGQNYVQQMIKGGKRPSVDKLMALLNTLGNASAIYVITGFNISDEDLKLIALISSGDKKKIEALSLLLTEKKQ	not soluble
MYVIDTSAIISRNLNLLEGDLMFPSSVIGEIKKGKLRYMIDVLLPMIRVASPDHEYLKIVEETAAKTGDLMNLSQTDKDVLALALQYDATIVTDDYSIQNVASYLNLGFLNA	soluble
MVYDLAIIGGGINGCGIARDAAGRGHSVFLCEMNDLASGTSSWSTKLIHGGLRYLEYFEFRLVREALIERERLWQIAPHIIGPLRFVLPHHDGLRPAWRLRLGLFMYDYLGGRKLLPPTRSVDLAHDEVGKPLIPGRYTKGFEYSDCFVDDARLVVLTARDAAERGAEIRTRTRAVQVSQQGGIWQVTLEDVGSGARSTIQARALVNAAGPWVEGVLRSGAGVDARYKVRLVQGSHIVTRKLYDHDRAYIFQNADGRIVFAIPYQGDFTLIGTTDRDYHGDPSQVKATPEEIDYLCKAVSGYFAKPVTPADVVWTFSGVRPLYDDGASEAKAATRDYVFELDTPGGAPLLSIYGGKITTYRRLAEEALEKLSSYLKGGTAKQGWTAHQPLPGGDFPVDGGPALIGDLLREYPFLASAHASRLVHAYGTRARDVLGSAKSAADLGRDFGATLTEAEVRYLMSREWACSADDIVWRRSKLGLRLTPAAVAALDEWVIVHRAAEKPQQQAGGRALEHHHHHH	not soluble
MDLQSTPLKGVVRSSEDGLFYLFPIQSLSTLQEMKGHLTCAIDVLSNPDESDVEKRLDAVRTLNSLVAALSVNDGDHYDVIDTAFEEIRE	not soluble
MSEAGSTVPFDFSSYGGEIDDLATRGLADAAGAEGIRTAMARVTGRAEEVQASRLSANEQNLIACGPGCADCCRVNVTVLLPEAIAIAAYLEEIGKGDETNAITMRVADTAARVRWMEDDERIRAGVACPFLDGRGWCAIYPVRPLTCRALSSTDPEQCRRALAAHCSDEEETIVVNIFQKFLMEGTFQSLARAMERAGLDTTGRELCRSVTRCLLDPRLADDFLAGKRIKFPESLEHHHHHH	soluble
MGSDKIHHHHHHMCTRFVYNGKETIVGFNFDIDLSEWEHTVIAEKDRFFIGIKMSDNKYHSFHGINRNGNVGTLLYVHGNDNAQFCSNESCYTIADLTENFIKGNLSFDDSLEIVKKKKITYAPDTTMQAMFSDRNGRVLIIEPGIGYRLEKEKYSLITNYSILKPELTNPYVLSGDNRYEKAKDLLQGYGENFSISNAFDVLRSVRQEGLWATRVSFIYSVAKNKVYYVLNNDFKNIAEYQF	not soluble
PISFGLSVRKSLAKGFSVETGLTYTLLSSDAKFADSDQKTEQKLHYLGIPLKANWNFLDKKLFTLYVSGGGMIEKCVYGKLGTEKETVKPLQFSVSGAVGAQFNATKRVGIYVEPGVAYFFDDGSDVQTIRKENPFNFNIQAGIRLTY	not soluble
